Reference: US20230167482A1, “FUNCTIONAL CYTOCHROME P450 IN VITRO ASSAY” (PharmGenetix GmbH, priority 2019, published 2023)

System: CYP2D6
Assay: Functional CYP2D6 in vitro assay: HEK-Blue cells transiently transfected with a CYP2D6 variant, P450-Glo luminescence with Luciferin-ME EGE, normalized to secreted NanoLuc
Assay type: cell-based, human
Conditions: one-way ANOVA followed by Dunnett post hoc test, categories: loss, decrease, normal, increase of function
Protocol: Therefore the CYP2D6 coding sequence (CDS) of interest is cloned into pcDNA3.1-HISC vector, and variants of interest are produced via site-directed mutagenesis (FIG. 1; step 1).
pcDNA3.1-HISC (A) and pNL1.3CMV[secNluc/CMV] (B) vectors are co-transfected in HEK-Blue™ cells (FIG. 1; step 2). 48 hours after transfection, secreted NanoLuc is detected and measured by luminescence using a multi-plate reader (FIG. 1; step 3). Following NanoLuc detection, old media is replaced with Luciferin ME-EGE containing media (FIG. 1; step 4). After 3 hours incubation at 37° C., cells are lysed and luciferin production (proportional to CYP2D6 activity) is measured using a multi-plate reader (FIG. 1; step 5).
CYP2D6 cDNA was obtained from total liver RNA (Ambion®, Life Technology, Wien, Austria), following Reverse-Transcription-PCR (RT-PCR) using the Quantitect® Reverse Transcription kit (Qiagen, Hilden, Germany) following manufacturer instructions. The CYP2D6 coding sequence (CDS) was then amplified using the following oligonucleotide primers: 5′-[…]-3′ (forward primer) and 5′-[…]-3′ (reverse primer). The CYP2D6 CDS was then cloned into the pcDNA3.1-HISC eukaryotic protein expression vector under the control of the CMV immediate enhancer and promoter, using the NheI and KpnI restriction digestion enzymes (Thermo Scientific, Waltham, Mass., USA). […] All the other tested CYP2D6 variants were similarly created. After production, vectors and cloned inserts were verified with Sanger sequencing against the wild-type reference sequence (SEQ ID No: 2).
Cell culture and transfection Human Embryonic Kidney (HEK)-Blue (HEK-Blue™ IL-4/IL-13 cells, Invivogen, Toulouse, France) cells, an engineered cell line derived from HEK-293 cells, were cultured in a humidified incubator at 37° C. with 5% CO2 with Dulbecco's Modified Eagles Medium (DMEM) supplemented with 4.5 g/L glucose, 10% (v/v) Fetal Bovine Serum (FBS), 1.5% NaHCO3, 50 U/mL penicillin, 50 μg/mL streptomycin, 10 μg/mL Blasticidin and 100 μg/mL Zeocin™ (Invivogen, Toulouse, France). Media was replaced three times weekly. […]
Forty-eight hours following transfection, a 20 μL aliquot of the supernatant was transferred from each well into a new white 96-well Nunclon™ A Surface plate for the detection of the secreted NanoLuc® levels using the Nano-Glo® Luciferase assay (Promega, Mannheim, Germany). […] Following three minutes incubation at room temperature (RT), luminescence was measured using the Spark® 10M multimode multiplate reader (Tecan, Grodig, Austria), keeping an optical density filter of 1 (OD1) and 1 second of integration time. Luminescence levels directly correspond to the amount of secreted NanoLuc®, which is used for normalization of transfection efficiency. […]

B1: *9: human CYP2D6 variant allele *9 (PV00434), SEQ ID NO: 5 (protein, UniProt P10635 1-497, looked up, variant K281*)
Cytochrome P450 2D6: MGLEALVPLAVIVAIFLLLVDLMHRRQRWAARYPPGPLPLPGLGNLLHVDFQNTPYCFDQLRRRFGDVFSLQLAWTPVVVLNGLAAVREALVTHGEDTADRPPVPITQILGFGPRSQGVFLARYGPAWREQRRFSVSTLRNLGLGKKSLEQWVTEEAACLCAAFANHSGRPFRPNGLLDKAVSNVIASLTCGRRFEYDDPRFLRLLDLAQEGLKEESGFLREVLNAVPVLLHIPALAGKVLRFQKAFLTQLDELLTEHRMTWDPAQPPRDLTEAFLAEMEAKGNPESSFNDENLRIVVADLFSAGMVTTSTTLAWGLLLMILHPDVQRRVQQEIDDVIGQVRRPEMGDQAHMPYTTAVIHEVQRFGDIVPLGVTHMTSRDIEVQGFRIPKGTTLITNLSSVLKDEAVWEKPFRFHPEHFLDAQGHFVKPEAFLPFSAGRRACLGEPLARMELFLFFTSLLQHFSFSVPTGQPRPSHHGVFAFLVSPSPYELCAVPR
function category of the variant versus *1 and *3 controls: decrease of function

B2: *10: human CYP2D6 variant allele *10 (PV00435), SEQ ID NO: 6 (protein, UniProt P10635 1-497, looked up, variant P34S S486T)
Cytochrome P450 2D6: MGLEALVPLAVIVAIFLLLVDLMHRRQRWAARYSPGPLPLPGLGNLLHVDFQNTPYCFDQLRRRFGDVFSLQLAWTPVVVLNGLAAVREALVTHGEDTADRPPVPITQILGFGPRSQGVFLARYGPAWREQRRFSVSTLRNLGLGKKSLEQWVTEEAACLCAAFANHSGRPFRPNGLLDKAVSNVIASLTCGRRFEYDDPRFLRLLDLAQEGLKEESGFLREVLNAVPVLLHIPALAGKVLRFQKAFLTQLDELLTEHRMTWDPAQPPRDLTEAFLAEMEKAKGNPESSFNDENLRIVVADLFSAGMVTTSTTLAWGLLLMILHPDVQRRVQQEIDDVIGQVRRPEMGDQAHMPYTTAVIHEVQRFGDIVPLGVTHMTSRDIEVQGFRIPKGTTLITNLSSVLKDEAVWEKPFRFHPEHFLDAQGHFVKPEAFLPFSAGRRACLGEPLARMELFLFFTSLLQHFSFSVPTGQPRPSHHGVFAFLVTPSPYELCAVPR
function category of the variant versus *1 and *3 controls: decrease of function

B3: *14: human CYP2D6 variant allele *14 (PV00439), SEQ ID NO: 7 (protein, UniProt P10635 1-497, looked up, variant P34S G169R R296C S486T)
Cytochrome P450 2D6: MGLEALVPLAVIVAIFLLLVDLMHRRQRWAARYSPGPLPLPGLGNLLHVDFQNTPYCFDQLRRRFGDVFSLQLAWTPVVVLNGLAAVREALVTHGEDTADRPPVPITQILGFGPRSQGVFLARYGPAWREQRRFSVSTLRNLGLGKKSLEQWVTEEAACLCAAFANHSRRPFRPNGLLDKAVSNVIASLTCGRRFEYDDPRFLRLLDLAQEGLKEESGFLREVLNAVPVLLHIPALAGKVLRFQKAFLTQLDELLTEHRMTWDPAQPPRDLTEAFLAEMEKAKGNPESSFNDENLCIVVADLFSAGMVTTSTTLAWGLLLMILHPDVQRRVQQEIDDVIGQVRRPEMGDQAHMPYTTAVIHEVQRFGDIVPLGVTHMTSRDIEVQGFRIPKGTTLITNLSSVLKDEAVWEKPFRFHPEHFLDAQGHFVKPEAFLPFSAGRRACLGEPLARMELFLFFTSLLQHFSFSVPTGQPRPSHHGVFAFLVTPSPYELCAVPR
function category of the variant versus *1 and *3 controls: decrease of function

B4: *29: human CYP2D6 variant allele *29 (PV00453), SEQ ID NO: 8 (protein, UniProt P10635 1-497, looked up, variant V136I R296C V338M S486T)
Cytochrome P450 2D6: MGLEALVPLAVIVAIFLLLVDLMHRRQRWAARYPPGPLPLPGLGNLLHVDFQNTPYCFDQLRRRFGDVFSLQLAWTPVVVLNGLAAVREALVTHGEDTADRPPVPITQILGFGPRSQGVFLARYGPAWREQRRFSISTLRNLGLGKKSLEQWVTEEAACLCAAFANHSGRPFRPNGLLDKAVSNVIASLTCGRRFEYDDPRFLRLLDLAQEGLKEESGFLREVLNAVPVLLHIPALAGKVLRFQKAFLTQLDELLTEHRMTWDPAQPPRDLTEAFLAEMEKAKGNPESSFNDENLCIVVADLFSAGMVTTSTTLAWGLLLMILHPDVQRRVQQEIDDMIGQVRRPEMGDQAHMPYTTAVIHEVQRFGDIVPLGVTHMTSRDIEVQGFRIPKGTTLITNLSSVLKDEAVWEKPFRFHPEHFLDAQGHFVKPEAFLPFSAGRRACLGEPLARMELFLFFTSLLQHFSFSVPTGQPRPSHHGVFAFLVTPSPYELCAVPR
function category of the variant versus *1 and *3 controls: decrease of function
